Article PMC6544384

Assays:
[1] = molecular target: T1, ZLD full-length (rZLD) (UniProt Q9VWC6 1-1596); experiment: EMSA
[2] = molecular target: T1, ZLD full-length (rZLD); experiment: competition
[3] = molecular target: T1, ZLD full-length (rZLD); experiment: competition; remark: listed apart in the source
[4] = molecular target: T2, ZLD DBD (MBP-ZLD1117-1487) (UniProt Q9VWC6 1117-1487); experiment: competition
T2 sequence: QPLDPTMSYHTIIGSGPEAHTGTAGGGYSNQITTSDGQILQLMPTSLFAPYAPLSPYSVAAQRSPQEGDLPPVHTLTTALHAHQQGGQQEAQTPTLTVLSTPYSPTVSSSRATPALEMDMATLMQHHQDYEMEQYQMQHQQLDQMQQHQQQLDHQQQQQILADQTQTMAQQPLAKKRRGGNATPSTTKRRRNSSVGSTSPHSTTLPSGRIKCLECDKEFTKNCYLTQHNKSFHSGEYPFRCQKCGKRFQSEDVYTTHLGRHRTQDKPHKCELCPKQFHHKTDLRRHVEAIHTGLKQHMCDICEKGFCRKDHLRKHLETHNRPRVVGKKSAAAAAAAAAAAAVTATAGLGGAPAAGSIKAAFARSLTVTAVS

T1 sequence (Q9VWC6 whole entry): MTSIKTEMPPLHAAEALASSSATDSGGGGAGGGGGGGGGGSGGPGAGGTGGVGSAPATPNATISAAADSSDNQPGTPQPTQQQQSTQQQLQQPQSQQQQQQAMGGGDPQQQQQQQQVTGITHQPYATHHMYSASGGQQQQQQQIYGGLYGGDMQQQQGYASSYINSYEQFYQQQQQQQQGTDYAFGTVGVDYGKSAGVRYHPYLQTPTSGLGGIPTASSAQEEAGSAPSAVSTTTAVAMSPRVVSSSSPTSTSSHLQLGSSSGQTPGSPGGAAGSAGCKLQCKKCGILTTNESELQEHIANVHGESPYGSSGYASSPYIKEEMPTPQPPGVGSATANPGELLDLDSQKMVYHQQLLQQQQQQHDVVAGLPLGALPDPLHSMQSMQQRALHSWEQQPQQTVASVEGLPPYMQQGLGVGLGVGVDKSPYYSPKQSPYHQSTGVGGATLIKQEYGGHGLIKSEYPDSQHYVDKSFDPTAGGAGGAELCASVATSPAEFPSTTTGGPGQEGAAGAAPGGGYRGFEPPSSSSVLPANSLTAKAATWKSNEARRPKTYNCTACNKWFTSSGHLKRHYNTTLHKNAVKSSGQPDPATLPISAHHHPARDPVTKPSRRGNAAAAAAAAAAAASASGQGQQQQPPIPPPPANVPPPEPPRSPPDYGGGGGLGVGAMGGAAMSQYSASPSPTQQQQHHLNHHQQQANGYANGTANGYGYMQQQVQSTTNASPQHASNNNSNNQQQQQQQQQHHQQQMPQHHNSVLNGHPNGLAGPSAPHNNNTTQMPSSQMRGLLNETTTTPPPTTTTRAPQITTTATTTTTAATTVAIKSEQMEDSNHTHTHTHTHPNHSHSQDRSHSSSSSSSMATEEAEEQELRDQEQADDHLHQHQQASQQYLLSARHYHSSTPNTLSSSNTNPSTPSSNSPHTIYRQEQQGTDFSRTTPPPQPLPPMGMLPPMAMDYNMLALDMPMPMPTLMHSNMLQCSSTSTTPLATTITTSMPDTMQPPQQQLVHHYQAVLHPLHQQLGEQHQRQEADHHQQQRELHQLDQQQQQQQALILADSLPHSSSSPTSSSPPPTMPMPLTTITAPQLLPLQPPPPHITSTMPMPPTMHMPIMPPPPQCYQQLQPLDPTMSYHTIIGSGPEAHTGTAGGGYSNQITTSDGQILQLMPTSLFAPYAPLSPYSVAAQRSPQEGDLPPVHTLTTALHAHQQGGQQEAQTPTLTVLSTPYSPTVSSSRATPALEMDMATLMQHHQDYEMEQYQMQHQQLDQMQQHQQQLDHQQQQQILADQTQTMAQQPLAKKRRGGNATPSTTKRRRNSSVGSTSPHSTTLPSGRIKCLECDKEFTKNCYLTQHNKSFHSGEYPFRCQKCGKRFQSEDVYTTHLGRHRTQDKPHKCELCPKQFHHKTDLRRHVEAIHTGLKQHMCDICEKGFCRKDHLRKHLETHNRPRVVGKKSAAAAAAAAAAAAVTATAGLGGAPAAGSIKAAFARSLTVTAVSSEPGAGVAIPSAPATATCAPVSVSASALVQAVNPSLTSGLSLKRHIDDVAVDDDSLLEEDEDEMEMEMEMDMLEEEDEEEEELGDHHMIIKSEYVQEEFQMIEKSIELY

B1: bnk DNA (dsDNA)
DNA 1: TCCTTTTTTACTTTCATAGCTTAGGTAGTGATCTCAGGTAGTTTCCCGGAATTAAGTTAGGCTGGGTATCGCCTATCGGGAGCGGCTACCTGAACTTTTGGCACCAGCTGTCGGGGGTGAAAACTGGACCAGGTAGTCTTTAGAAGTGCACCTATATAAG
DNA 2: CTTATATAGGTGCACTTCTAAAGACTACCTGGTCCAGTTTTCACCCCCGACAGCTGGTGCCAAAAGTTCAGGTAGCCGCTCCCGATAGGCGATACCCAGCCTAACTTAATTCCGGGAAACTACCTGAGATCACTACCTAAGCTATGAAAGTAAAAAAGGA
B1: binds [1].

B2: scute mutant (nonspecific competitor) (dsDNA)
DNA 1: GAGAGAGAGTAGTTCTGGCTCACT
DNA 2: AGTGAGCCAGAACTACTCTCTCTC
B2: no binding [2].

B3: scute wild-type (specific competitor) (dsDNA)
DNA 1: GAGAGAGACTACCTGTGGCTCACT
DNA 2: AGTGAGCCACAGGTAGTCTCTCTC
B3: binds [3]; binds [4].
